The target in assay [1] is T1, GST-novel PDZ gene PDZ domain 1 (Homo sapiens (Human)), Q9H5P4.
T1 chain: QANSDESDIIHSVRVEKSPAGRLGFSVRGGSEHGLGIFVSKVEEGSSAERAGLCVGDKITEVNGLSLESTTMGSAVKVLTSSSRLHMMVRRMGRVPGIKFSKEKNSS
The experiment in a line: G' assay. Further: key of the grades not given here.

Assay [2] addresses T2, GST-Shank 1 PDZ domain 1 (Homo sapiens (Human)), Q9UPX8.
T2 chain: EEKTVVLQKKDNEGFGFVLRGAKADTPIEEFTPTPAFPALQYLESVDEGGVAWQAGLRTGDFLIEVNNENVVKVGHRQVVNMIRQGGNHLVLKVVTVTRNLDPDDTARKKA
The experiment in a line: G' assay. Further: key of the grades not given here.

Assay [3] concerns the target GST-PAR3 PDZ domain 3 (Homo sapiens (Human)), Q8TEW0. The assay can be described thus: G' assay. Further: key of the grades not given here.
The target in assay [4] is T3, GST-MINT1 PDZ domain 2 (Mus musculus (Mouse)), B2RUJ5.
T3 chain: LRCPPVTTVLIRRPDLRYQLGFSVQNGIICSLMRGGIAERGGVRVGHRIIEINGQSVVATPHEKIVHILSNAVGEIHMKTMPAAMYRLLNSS
The experiment in a line: G' assay. Further: key of the grades not given here.

Assay [5] deals with T4, GST-MUPP1 PDZ domain 7 (Homo sapiens (Human)), O75970.
T4 chain: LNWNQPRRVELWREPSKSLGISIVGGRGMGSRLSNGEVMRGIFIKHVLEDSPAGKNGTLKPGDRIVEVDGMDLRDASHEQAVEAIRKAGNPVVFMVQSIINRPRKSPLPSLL
The experiment in a line: G' assay. Further: key of the grades not given here.

The target of assay [6] is T5, GST-ENIGMA PDZ domain 1 (Homo sapiens (Human)), Q9NR12.
T5 chain: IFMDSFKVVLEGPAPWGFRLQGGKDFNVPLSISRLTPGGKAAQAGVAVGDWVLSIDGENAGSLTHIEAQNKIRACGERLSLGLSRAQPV
The experiment in a line: G' assay. Further: key of the grades not given here.

Assay [7] concerns the target T6, GST-KIAA0973 PDZ domain 1 (Homo sapiens (Human)), Q9Y2H9.
T6 chain: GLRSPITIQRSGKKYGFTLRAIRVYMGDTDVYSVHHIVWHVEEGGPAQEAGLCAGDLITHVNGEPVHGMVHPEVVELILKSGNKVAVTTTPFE
The experiment in a line: G' assay. Further: key of the grades not given here.

The target of assay [8] is T7, GST-LIM Mystique PDZ domain 1 (Homo sapiens (Human)), Q96JY6.
T7 chain: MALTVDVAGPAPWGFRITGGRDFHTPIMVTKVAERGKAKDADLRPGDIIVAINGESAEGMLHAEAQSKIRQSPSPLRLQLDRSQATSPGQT
The assay can be described thus: G' assay.

In assay [9] the target is T8, GST-AIPC PDZ domain 1 (Homo sapiens (Human)), O15018.
T8 chain: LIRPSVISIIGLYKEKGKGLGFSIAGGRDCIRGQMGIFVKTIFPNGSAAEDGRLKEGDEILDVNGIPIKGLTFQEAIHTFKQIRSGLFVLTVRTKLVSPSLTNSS
The assay can be described thus: G' assay.

For assay [10], the target named is T9, GST-MUPP1 PDZ domain 13 (Homo sapiens (Human)), O75970.
T9 chain: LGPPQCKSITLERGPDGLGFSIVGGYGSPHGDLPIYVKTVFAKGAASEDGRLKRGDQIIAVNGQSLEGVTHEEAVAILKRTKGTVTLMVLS
The assay can be described thus: G' assay.

The target in assay [11] is T10, GST-APXL-1 PDZ domain 1 (Homo sapiens (Human)), Q13796.
T10 chain: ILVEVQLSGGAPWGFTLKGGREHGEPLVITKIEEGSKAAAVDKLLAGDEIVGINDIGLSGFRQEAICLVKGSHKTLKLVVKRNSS
The assay can be described thus: G' assay.

The target in assay [12] is T11, GST-KIAA0807(S) PDZ domain 1 (Homo sapiens (Human)), Q6P0Q8.
T11 chain: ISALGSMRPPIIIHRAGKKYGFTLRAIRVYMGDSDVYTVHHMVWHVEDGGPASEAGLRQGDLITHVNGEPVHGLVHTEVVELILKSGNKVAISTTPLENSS
The experiment in a line: G' assay.

The target of assay [13] is T12, GST-LIM-RIL PDZ domain 1 (Homo sapiens (Human)), P50479.
T12 chain: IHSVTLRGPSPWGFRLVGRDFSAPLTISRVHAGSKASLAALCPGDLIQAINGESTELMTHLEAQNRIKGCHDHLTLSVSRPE
The experiment in a line: G' assay.

For assay [14], the target named is T13, GST-KIAA0382 PDZ domain 1 (Canis lupus familiaris (Dog) (Canis familiaris)), A0A8I3.
T13 chain: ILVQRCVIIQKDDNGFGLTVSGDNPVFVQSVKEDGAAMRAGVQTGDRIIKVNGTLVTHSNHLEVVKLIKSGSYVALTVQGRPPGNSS
The experiment in a line: G' assay.

Assay [15] deals with T14, GST-KIAA1526 PDZ domain 1 (Homo sapiens (Human)), Q9P202.
T14 chain: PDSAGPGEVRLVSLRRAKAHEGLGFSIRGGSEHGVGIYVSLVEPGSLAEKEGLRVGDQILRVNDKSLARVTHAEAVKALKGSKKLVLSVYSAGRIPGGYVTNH
The assay can be described thus: G' assay.

The target of assay [16] is T15, GST-PTPL1 PDZ domain 2 (Homo sapiens (Human)), Q12923.
T15 chain: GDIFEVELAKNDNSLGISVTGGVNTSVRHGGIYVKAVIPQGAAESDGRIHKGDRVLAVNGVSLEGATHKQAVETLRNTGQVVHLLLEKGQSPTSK
The assay can be described thus: G' assay.

For assay [17], the target named is GST-KIAA1634 PDZ domain 5 (Homo sapiens (Human)), Q5TCQ9. The assay can be described thus: G' assay. Further: key of the grades not given here.
The target in assay [18] is GST-BAI-1 Associated Protein PDZ domain 6 (Homo sapiens (Human)), Q96QZ7. The experiment in a line: G' assay. Further: key of the grades not given here.
In assay [19] the target is T16, GST-MUPP1 PDZ domain 9 (Homo sapiens (Human)), O75970.
T16 chain: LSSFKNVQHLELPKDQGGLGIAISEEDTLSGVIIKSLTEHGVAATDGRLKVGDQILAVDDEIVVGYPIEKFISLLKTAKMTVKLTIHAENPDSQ
The experiment in a line: G' assay.

The target in assay [20] is GST-KIAA807 [GST: P08515]. The experiment in a line: G' assay.
Assay [21] concerns the target T17, GST-ZO-2 PDZ domain 2 (Homo sapiens (Human)), Q9UDY2.
T17 chain: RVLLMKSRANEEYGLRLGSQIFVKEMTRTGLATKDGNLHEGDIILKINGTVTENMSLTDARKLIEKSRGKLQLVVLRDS
The experiment in a line: G' assay.

Assay [22] deals with T18, GST-ZO-1 PDZ domain 2 (Rattus norvegicus (Rat)), A0A0G2.
T18 chain: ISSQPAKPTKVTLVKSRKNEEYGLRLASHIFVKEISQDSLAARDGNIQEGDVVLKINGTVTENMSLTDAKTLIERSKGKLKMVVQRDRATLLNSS
The assay can be described thus: G' assay.

In assay [23] the target is T19, GST-ZO-1 PDZ domain 1 (Rattus norvegicus (Rat)), A0A0G2.
T19 chain: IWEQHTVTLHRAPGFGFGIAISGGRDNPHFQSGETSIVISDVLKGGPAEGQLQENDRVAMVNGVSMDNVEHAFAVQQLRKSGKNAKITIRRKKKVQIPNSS
The experiment in a line: G' assay.

For assay [24], the target named is T11, GST-KIAA0807(S) PDZ domain 1 (Homo …). The assay can be described thus: G assay titration, PDZ 0.5 ug/ml.
For assay [25], the target named is T20, GST-Outer Membrane PDZ domain 1 (Homo sapiens (Human)), P57105.
T20 chain: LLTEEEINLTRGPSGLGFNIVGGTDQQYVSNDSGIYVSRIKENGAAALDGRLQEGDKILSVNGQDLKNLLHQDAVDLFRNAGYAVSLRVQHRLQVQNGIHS
The experiment in a line: G' assay.

In assay [26] the target is GST-KIAA0147 PDZ domain 1 (Homo sapiens (Human)), Q14160. The experiment in a line: G' assay. Further: key of the grades not given here.
Assay [27] concerns the target T21, GST-PTN-4 PDZ domain 1 (Homo sapiens (Human)), P29074.
T21 chain: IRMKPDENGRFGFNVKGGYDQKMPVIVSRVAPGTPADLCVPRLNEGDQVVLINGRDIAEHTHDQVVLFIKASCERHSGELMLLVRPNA
The experiment in a line: G' assay.

Assay [28] has as its target GST-Atrophin-1 Interacting Protein PDZ domain 5 (Rattus norvegicus (Rat)), O88382. The experiment in a line: G' assay. Further: key of the grades not given here.
The target of assay [29] is T22, GST-PDZK1 PDZ domains 2, 3, 4, Q5T2W1.
T22 chain: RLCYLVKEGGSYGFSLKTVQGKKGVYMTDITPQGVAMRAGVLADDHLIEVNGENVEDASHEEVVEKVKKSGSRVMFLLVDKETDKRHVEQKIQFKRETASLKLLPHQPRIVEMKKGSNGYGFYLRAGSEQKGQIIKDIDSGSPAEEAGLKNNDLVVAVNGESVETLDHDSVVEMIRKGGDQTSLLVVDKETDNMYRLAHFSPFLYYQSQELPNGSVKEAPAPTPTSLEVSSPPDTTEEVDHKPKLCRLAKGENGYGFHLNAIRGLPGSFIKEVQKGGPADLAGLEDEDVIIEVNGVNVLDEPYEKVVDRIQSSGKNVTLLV
The experiment in a line: G' assay.

In assay [30] the target is T23, GST-Shank 3 PDZ domain 1 (human (hypothetical, computer cloned)), Q9BYB0.
T23 chain: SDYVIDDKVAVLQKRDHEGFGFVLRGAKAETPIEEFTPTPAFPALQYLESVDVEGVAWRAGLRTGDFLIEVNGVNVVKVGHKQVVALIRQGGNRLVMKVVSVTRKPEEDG
The experiment in a line: G' assay.

Assay [31] addresses GST-KIAA0316 PDZ domain 1 (Homo sapiens (Human)), Q14CM0. The assay can be described thus: G' assay. Further: key of the grades not given here. Particulars: remark: other sources report otherwise.
For assay [32], the target named is T24, GST-FLJ00011 PDZ domain 1 (Homo sapiens (Human)), Q9H5P4.
T24 chain: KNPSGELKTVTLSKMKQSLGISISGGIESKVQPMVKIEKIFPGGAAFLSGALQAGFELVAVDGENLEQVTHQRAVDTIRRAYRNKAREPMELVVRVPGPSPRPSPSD
The assay can be described thus: G' assay.

Assay [33] concerns the target GST-PIST PDZ domain 1 (Mus musculus (Mouse)), Q8BH60. The assay can be described thus: G' assay. Further: key of the grades not given here.

Sequence of GST-KIAA807 [GST: P08515] (P08515 whole entry, the tested form may be a part): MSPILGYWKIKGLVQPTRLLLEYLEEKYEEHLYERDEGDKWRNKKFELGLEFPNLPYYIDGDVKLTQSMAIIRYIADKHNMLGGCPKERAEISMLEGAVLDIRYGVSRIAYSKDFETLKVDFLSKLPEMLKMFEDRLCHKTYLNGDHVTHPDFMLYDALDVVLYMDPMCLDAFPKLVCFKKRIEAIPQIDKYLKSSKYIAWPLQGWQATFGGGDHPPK
Sequence of GST-Atrophin-1 Interacting Protein PDZ domain 5 (Rattus norvegicus (Rat)), O88382 (O88382 1128-1225): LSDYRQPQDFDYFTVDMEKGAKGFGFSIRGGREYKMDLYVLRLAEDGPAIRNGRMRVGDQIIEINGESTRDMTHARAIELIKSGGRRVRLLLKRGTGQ
Sequence of GST-KIAA1634 PDZ domain 5 (Homo sapiens (Human)), Q5TCQ9 (Q5TCQ9 other isoform, or with tags, fused parts or gaps): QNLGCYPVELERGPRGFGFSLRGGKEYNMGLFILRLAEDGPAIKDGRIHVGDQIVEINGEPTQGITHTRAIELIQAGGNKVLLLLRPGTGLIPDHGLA
Sequence of GST-BAI-1 Associated Protein PDZ domain 6 (Homo sapiens (Human)), Q96QZ7 (Q96QZ7 1143-1233): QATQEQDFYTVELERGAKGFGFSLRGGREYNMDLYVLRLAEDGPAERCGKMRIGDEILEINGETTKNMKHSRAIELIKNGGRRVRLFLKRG
Sequence of GST-KIAA0147 PDZ domain 1 (Homo sapiens (Human)), Q14160 (Q14160 other isoform, or with tags, fused parts or gaps): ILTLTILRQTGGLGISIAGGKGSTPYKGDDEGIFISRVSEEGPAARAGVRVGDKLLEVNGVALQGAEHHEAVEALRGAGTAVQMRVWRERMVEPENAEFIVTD
Sequence of GST-PAR3 PDZ domain 3 (Homo sapiens (Human)), Q8TEW0 (Q8TEW0 579-681): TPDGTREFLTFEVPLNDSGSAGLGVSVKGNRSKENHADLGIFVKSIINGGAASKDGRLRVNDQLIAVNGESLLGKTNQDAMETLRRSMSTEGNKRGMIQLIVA
Sequence of GST-KIAA0316 PDZ domain 1 (Homo sapiens (Human)), Q14CM0 (Q14CM0 72-159): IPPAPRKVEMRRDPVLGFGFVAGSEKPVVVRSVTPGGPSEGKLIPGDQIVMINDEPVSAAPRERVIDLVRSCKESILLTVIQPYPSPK

VHDAESSDEDGYDWGPATDL (modifications not checked) [zona occludens 3 (ZO-3) PL peptide]: the Classification was determined as 1 A450 class in assay [1]; 1 A450 class in [2]; 1 A450 class in assay [3]; 2 A450 class in [4]; 1 A450 class in assay [5]; 1 A450 class in [6]. Besides, the Classification in [7] was determined as 2 A450 class; in assay [8], 2 A450 class; in assay [9], 1 A450 class; in [10] it was 2 A450 class; in [11], 2 A450 class; in assay [12], 5 A450 class. In addition, the Classification in assay [13] came to 2 A450 class; in assay [14] it was 2 A450 class; in assay [15] it was 1 A450 class; in assay [16] it was 2 A450 class; in [17], 1 A450 class; in assay [18], 2 A450 class. In addition, the Classification was 1 A450 class in [19] and 5 A450 class in assay [20].
As for TEGNESSEATSPVNAIYSLA (modifications not checked) [neurofascin (chicken)], the Classification in [21], in assay [22], in assay [23] and in assay [15] was 1 A450 class each time.
In general, Kd refers to the constant that tells how readily two partners part at equilibrium. A lower Kd goes with higher affinity. Consider QPTPTLGLNLGNDPDRGTSI (modifications not checked) [GluR delta-2], for which the Kd in assay [24] came to 4 µM. Moreover, the Classification in assay [12] was determined as 4 A450 class; in assay [15], 2 A450 class; in assay [25] it was 2 A450 class; in [20], 3 A450 class.
With QATSRNGHSARQHVVADTEL (modifications not checked) [CD34], the Classification in assay [26] was 1 A450 class; in [2], 1 A450 class; in assay [27] it was 1 A450 class; in assay [12] it was 3 A450 class; in [13] it was 1 A450 class; in [14], 1 A450 class. For the same molecule, the Classification in assay [17] is 1 A450 class; in assay [18], 1 A450 class; in assay [20], 5 A450 class; in assay [28], 1 A450 class.
Turning to KENDYESISDLQQGRDITRL (modifications not checked) [PAG], in assay [24], the Kd was determined as 0.35 µM. Besides, the Classification was 1 A450 class in [29]; 4 A450 class in assay [2]; 2 A450 class in assay [30]; 1 A450 class in assay [31]; 3 A450 class in assay [32]; 2 A450 class in assay [11]. The Classification in [12] was determined as 5 A450 class; in [14], 1 A450 class; in [25] it was 2 A450 class; in assay [20], 5 A450 class; in assay [33], 1 A450 class; in [28] it was 1 A450 class.
As to PSSRASSRASSRPRPDDLEI (modifications not checked) [CX43 (connexin 43)], the Classification in assay [21] amounted to 1 A450 class; in assay [22], 2 A450 class.

Source of the values: US20050282743A1, “Molecular interactions in cells” (Arbor Vita Corporation, priority 2001, published 2005).
